Experimental findings from US20250262210A1 (TRUSTEES OF COLUMBIA UNIVERSITY IN THE CITY OF NEW YORK, published 2025) are described below.

One assay has as its target RTTN (human, UniProt Q86VV8 1-2226, limits assumed). Briefly: IP/MS, LZTR1 wild type-FLAG, U87. In a few lines: (§1)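 Read-out: spectral counts from LC-MS/MS (Orbitrap Fusion) after MaxQuant identification. Variable modifications were Met oxidation, protein N-terminal acetylation and N/Q deamidation.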
The target of the next assay is T1, RNF123 (human, UniProt Q5XPI4 2-1314, limits assumed).
T1 sequence (looked up): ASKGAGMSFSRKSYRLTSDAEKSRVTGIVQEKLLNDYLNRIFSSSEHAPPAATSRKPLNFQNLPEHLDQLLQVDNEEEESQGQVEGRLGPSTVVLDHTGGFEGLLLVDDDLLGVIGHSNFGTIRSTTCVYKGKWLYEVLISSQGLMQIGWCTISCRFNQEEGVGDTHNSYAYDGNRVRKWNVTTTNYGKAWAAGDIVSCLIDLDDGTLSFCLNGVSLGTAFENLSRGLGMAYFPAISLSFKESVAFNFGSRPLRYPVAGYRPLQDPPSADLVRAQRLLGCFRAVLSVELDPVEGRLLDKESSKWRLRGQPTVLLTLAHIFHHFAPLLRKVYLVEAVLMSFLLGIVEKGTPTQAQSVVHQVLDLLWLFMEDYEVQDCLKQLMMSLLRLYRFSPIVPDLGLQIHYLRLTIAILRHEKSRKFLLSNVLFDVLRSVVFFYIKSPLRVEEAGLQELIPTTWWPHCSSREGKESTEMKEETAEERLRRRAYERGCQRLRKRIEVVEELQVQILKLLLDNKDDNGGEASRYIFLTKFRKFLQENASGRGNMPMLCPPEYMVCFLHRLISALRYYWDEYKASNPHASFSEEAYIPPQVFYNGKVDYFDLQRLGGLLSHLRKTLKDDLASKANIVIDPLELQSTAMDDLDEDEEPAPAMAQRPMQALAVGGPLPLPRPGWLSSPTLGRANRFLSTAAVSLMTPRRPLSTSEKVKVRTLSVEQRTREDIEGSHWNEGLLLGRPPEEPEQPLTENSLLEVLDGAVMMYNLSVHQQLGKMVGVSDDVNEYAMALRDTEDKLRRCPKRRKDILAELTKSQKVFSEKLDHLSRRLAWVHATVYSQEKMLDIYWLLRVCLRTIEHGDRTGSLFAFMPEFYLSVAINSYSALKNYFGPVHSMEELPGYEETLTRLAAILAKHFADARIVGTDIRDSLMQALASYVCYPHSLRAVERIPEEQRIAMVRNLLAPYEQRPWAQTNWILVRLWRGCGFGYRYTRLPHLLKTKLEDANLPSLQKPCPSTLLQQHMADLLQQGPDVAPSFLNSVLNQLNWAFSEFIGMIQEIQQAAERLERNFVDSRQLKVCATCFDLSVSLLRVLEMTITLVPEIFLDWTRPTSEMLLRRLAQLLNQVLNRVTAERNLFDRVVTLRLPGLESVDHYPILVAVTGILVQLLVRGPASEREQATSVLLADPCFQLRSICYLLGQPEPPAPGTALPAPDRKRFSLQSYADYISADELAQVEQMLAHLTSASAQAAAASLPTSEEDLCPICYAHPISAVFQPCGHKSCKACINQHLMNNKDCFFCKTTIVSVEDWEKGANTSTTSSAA
Briefly: IP/MS, LZTR1 wild type-FLAG, U87. In a few lines:
as §1

Chain of RTTN (Q86VV8 whole entry, the tested form may be a part): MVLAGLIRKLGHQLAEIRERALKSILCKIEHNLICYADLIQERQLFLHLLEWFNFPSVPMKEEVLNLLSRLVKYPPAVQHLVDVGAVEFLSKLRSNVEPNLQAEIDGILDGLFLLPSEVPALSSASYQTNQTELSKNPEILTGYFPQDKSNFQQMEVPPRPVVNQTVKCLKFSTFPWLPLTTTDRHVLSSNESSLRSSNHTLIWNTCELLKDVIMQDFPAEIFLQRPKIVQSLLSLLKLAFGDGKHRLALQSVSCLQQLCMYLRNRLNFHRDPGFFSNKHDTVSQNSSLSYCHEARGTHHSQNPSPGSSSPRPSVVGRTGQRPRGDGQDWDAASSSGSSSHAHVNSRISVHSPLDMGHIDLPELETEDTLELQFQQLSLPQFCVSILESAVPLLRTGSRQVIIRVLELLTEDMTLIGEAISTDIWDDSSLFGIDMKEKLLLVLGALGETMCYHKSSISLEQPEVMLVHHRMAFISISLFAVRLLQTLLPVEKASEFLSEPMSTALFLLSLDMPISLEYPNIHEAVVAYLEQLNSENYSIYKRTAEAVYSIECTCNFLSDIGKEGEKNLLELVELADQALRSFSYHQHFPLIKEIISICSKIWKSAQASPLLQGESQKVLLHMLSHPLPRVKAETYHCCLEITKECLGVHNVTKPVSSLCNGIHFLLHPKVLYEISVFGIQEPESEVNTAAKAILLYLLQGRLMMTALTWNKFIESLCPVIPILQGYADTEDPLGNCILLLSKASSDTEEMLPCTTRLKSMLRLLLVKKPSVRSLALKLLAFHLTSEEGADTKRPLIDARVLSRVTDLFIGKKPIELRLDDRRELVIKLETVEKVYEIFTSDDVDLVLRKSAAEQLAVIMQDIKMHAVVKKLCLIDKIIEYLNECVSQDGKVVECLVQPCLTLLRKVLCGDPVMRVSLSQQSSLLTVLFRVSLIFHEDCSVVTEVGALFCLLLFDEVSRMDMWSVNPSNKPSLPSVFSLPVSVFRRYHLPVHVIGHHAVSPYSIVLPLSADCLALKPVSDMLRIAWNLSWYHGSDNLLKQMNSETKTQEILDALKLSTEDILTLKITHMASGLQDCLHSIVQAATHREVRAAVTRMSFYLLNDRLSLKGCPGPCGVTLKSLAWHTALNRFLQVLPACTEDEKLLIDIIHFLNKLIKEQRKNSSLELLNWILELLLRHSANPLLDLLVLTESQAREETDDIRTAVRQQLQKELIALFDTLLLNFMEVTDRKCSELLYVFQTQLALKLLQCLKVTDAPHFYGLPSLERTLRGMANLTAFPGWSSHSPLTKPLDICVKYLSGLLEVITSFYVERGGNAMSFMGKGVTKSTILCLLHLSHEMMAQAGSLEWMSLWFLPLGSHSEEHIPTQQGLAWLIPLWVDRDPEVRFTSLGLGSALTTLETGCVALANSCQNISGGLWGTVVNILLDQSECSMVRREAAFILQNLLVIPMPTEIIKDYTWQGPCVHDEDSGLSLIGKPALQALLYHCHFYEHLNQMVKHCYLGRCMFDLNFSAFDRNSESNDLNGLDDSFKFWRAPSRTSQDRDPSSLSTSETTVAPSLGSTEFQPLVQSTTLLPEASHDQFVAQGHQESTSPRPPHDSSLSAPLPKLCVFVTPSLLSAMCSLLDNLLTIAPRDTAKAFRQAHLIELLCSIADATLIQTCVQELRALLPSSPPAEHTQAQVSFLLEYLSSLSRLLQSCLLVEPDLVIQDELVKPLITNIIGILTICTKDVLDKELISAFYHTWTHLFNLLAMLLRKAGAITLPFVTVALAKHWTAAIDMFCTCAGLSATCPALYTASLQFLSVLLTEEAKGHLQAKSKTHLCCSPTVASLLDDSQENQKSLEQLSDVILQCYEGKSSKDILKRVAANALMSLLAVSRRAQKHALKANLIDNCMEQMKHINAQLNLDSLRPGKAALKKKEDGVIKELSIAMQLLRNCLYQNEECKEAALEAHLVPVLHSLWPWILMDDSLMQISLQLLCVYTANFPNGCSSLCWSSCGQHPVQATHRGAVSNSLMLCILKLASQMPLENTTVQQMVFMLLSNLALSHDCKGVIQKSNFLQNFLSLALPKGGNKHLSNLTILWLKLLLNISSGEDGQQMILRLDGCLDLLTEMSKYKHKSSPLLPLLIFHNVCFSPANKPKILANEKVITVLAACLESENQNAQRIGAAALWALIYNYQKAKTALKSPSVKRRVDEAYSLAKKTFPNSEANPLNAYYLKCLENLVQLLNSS

B1: LZTR1-FLAG (other, human, UniProt Q8N653 1-840, looked up)
chain: MAGPGSTGGQIGAAALAGGARSKVAPSVDFDHSCSDSVEYLTLNFGPFETVHRWRRLPPCDEFVGARRSKHTVVAYKDAIYVFGGDNGKTMLNDLLRFDVKDCSWCRAFTTGTPPAPRYHHSAVVYGSSMFVFGGYTGDIYSNSNLKNKNDLFEYKFATGQWTEWKIEGRLPVARSAHGATVYSDKLWIFAGYDGNARLNDMWTIGLQDRELTCWEEVAQSGEIPPSCCNFPVAVCRDKMFVFSGQSGAKITNNLFQFEFKDKTWTRIPTEHLLRGSPPPPQRRYGHTMVAFDRHLYVFGGAADNTLPNELHCYDVDFQTWEVVQPSSDSEVGGAEVPERACASEEVPTLTYEERVGFKKSRDVFGLDFGTTSAKQPTQPASELPSGRLFHAAAVISDAMYIFGGTVDNNIRSGEMYRFQFSCYPKCTLHEDYGRLWESRQFCDVEFVLGEKEECVQGHVAIVTARSRWLRRKITQARERLAQKLEQEAAPVPREAPGVAAGGARPPLLHVAIREAEARPFEVLMQFLYTDKIKYPRKGHVEDVLLIMDVYKLALSFQLCRLEQLCRQYIEASVDLQNVLVVCESAARLQLSQLKEHCLNFVVKESHFNQVIMMKEFERLSSPLIVEIVRRKQQPPPRTPLDQPVDIGTSLIQDMKAYLEGAGAEFCDITLLLDGHPRPAHKAILAARSSYFEAMFRSFMPEDGQVNISIGEMVPSRQAFESMLRYIYYGEVNMPPEDSLYLFAAPYYYGFYNNRLQAYCKQNLEMNVTVQNVLQILEAADKTQALDMKRHCLHIIVHQFTKVSKLPTLRSLSQQLLLDIIDSLASHISDKQCAELGADI
notes: Expressed in HEK 293T, HeLa or U87 cells; used as cell lysate; also called LZTR1 wild type-FLAG; LZTR1 WT; not shown: FLAG tag at the C-terminus
B1: the binding result with RTTN and with RNF123 was “binds” throughout.
